Tests used:
[1] = substrate: CC(=O)Oc1ccc([N+](=O)[O-])cc1; assay: p-nitrophenol release, initial rates, nonlinear Michaelis-Menten fit; format: biochemical, Pseudonocardia alni; settings: 100 mM Tris-HCl pH 7.4, 100 mM NaCl, 25 °C
[2] = substrate: CCCC(=O)Oc1ccc([N+](=O)[O-])cc1; assay: as above; format: biochemical, Pseudonocardia alni; settings: 100 mM Tris-HCl pH 7.4, 100 mM NaCl, 25 °C

B1: PanLipΔN (Pseudonocardia alni) (protein)
chain: TLPDETFGPVDRPGPALSVPPDQLDAAVRCSANATDADRDVALFVPGTTLTPEVNFGFNWFAALDDLGRPYCSVTLPNNAMTDTQIAAEYVVHAIRHVHGISGRKVDVLGHSQGGTEPRFALRFWPDLRGMVDDYVAFGTTNHGSIAINAALCTPATGCAEALWQQTLNSHYTQAMNSYQETFAGISYTQIYTRTDEFVQPNLDDSGTTSLHGGGGEISNVALQDVCLTEAASEHIAVGTYSPVAYALATDALDHDGPADPARVDRGVCTQVFMPGVDPLTFPTDYAATLGLIANQLALAPRVGSEPELRPYTLADDRQG
notes: Signal peptide (30 residues) and proline-rich putative propeptide (27 residues) removed; ~first 57 residues missing (methods say first 27 of full-length); starts at TLPDE by primer; ends KQNLLE; pET-28a(+) NdeI/XhoI, His tag; codon-optimized; E. coli SHuffle T7 Express; Ni-NTA purified; Precursor length printed as both 324 and 377 residues
For B1, the Km [1] was 66.8 ± 18.5 µM, the kcat [1] was 16.2 ± 1.8 s⁻¹ and the Km [2] was 2.83 ± 1.56 mM. For the same protein, the kcat [2] was 9.7 ± 1.8 s⁻¹.

— paper PMC12734981, “A CALB-like Cold-Active Lipolytic Enzyme from Pseudonocardia antarctica: Expression, Biochemical Characterization, and AlphaFold-Guided Dynamics” (Marine Drugs, 2025)
